The target of the experiment is T1, Flag-tagged CDK9 S90A (human, UniProt P50750 1-372, S90A).
T1 construct: also called Flag-CDK9 S90A
The experiment can be described thus: co-IP; Flag-CDK9 (WT or S90A) precipitated with anti-Flag antibodies from lysates of 293T cells co-transfected with cyclin T1, 48 hrs post-transfection; whole cell lysis buffer (50 mM Tris-HCl pH 7.5, 0.5 M NaCl, 1% NP-40, 0.1% SDS); IP 2 hrs at 4°C in TNN buffer (50 mM Tris-HCl pH 7.5, 150 mM NaCl, 1% NP-40); immunoblot for Hexim1, CDK9 and cyclin T1. The note with it: partners not purified. (A western blot detects proteins with antibodies after separation by electrophoresis.)

T1 sequence (P50750 whole entry S90A): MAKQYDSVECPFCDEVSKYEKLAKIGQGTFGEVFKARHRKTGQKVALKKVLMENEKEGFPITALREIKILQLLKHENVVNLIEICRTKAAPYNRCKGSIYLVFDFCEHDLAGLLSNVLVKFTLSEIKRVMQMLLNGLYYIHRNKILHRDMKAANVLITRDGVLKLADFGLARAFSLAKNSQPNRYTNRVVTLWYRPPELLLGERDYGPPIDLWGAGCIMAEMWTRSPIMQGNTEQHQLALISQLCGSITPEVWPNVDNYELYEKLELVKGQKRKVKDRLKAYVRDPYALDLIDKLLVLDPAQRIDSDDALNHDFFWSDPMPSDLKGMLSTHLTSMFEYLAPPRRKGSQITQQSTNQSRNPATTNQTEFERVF

B1: HEXIM1 (natural protein, human (endogenous in 293T), UniProt O94992 1-359, looked up)
chain: MAEPFLSEYQHQPQTSNCTGAAAVQEELNPERPPGAEERVPEEDSRWQSRAFPQLGGRPGPEGEGSLESQPPPLQTQACPESSCLREGEKGQNGDDSSAGGDFPPPAEVEPTPEAELLAQPCHDSEASKLGAPAAGGEEEWGQQQRQLGKKKHRRRPSKKKRHWKPYYKLTWEEKKKFDEKQSLRASRIRAEMFAKGQPVAPYNTTQFLMDDHDQEEPDLKTGLYSKRAAAKSDDTSDDDFMEEGGEEDGGSDGMGGDGSEFLQRDFSETYERYHTESLQNMSKQELIKEYLELEKCLSRMEDENNRLRLESKRLGGDDARVRELELELDRLRAENLQLLTENELHRQQERAPLSKFGD
notes: source: endogenous, 293T lysate
With B1, the “HEXIM1 co-precipitated, relative to WT CDK9” value is approximately 50 % less.

For the origin of these results see publication PMC3515335, “CDK2 Regulates HIV-1 Transcription by Phosphorylation of CDK9 on Serine 90” (Retrovirology, 2012).
